# B1: Coiled-coil domain-containing protein 120 (Homo sapiens), Q96HB5-4 (parent)
# chain: MRREPRYQGQVGPDIHTDSERTLSSHQPRPLDSTKMEVKGQLISSPTFNAPAALFGEAAPQVKSERLRGLLDRQRTLQEALSLKLQELRKVCLQEAELTGQLPPECPLEPGERPQLVRRRPPTARAYPPPHPNQAHHSLCPAEELALEALEREVSVQQQIAAAARRLALAPDLSTEQRRRRRQVQADALRRLHELEEQLRDVRARLGLPVLPLPQPLPLSTGSVITTQGVCLGMRLAQLSQEDVVLHSESSSLSESGASHDNEEPHGCFSLAERPSPPKAWDQLRAVSGGSPERRTPWKPPPSDLYGDLKSRRNSVASPTSPTRSLPRSASSFEGRSVPATPVLTRGAGPQLCKPEGLHSRQWSGSQDSQMGFPRADPASDRASLFVARTRRSNSSEALLVDRAAGGGAGSPPAPLAPSASGPPVCKSSEVLYERPQPTPAFSSRTAGPPDPPRAARPSSAAPASRGAPRLPPVCGDFLLDYSLDRGLPRSGGGTGWGELPPAAEVPGPLSRRDGLLTMLPGPPPVYAADSNSPLLRTKDPHTRATRTKPCGLPPEAAEGPEVHPNPLLWMPPPTRIPSAGERSGHKNLALEGLRDWYIRNSGLAAGPQRRPVLPSVGPPHPPFLHARCYEVGQALYGAPSQAPLPHSRSFTAPPVSGRYYADFLYPPELSARLSDLTLEGEQSSSSDTQTPGTLV
# partner: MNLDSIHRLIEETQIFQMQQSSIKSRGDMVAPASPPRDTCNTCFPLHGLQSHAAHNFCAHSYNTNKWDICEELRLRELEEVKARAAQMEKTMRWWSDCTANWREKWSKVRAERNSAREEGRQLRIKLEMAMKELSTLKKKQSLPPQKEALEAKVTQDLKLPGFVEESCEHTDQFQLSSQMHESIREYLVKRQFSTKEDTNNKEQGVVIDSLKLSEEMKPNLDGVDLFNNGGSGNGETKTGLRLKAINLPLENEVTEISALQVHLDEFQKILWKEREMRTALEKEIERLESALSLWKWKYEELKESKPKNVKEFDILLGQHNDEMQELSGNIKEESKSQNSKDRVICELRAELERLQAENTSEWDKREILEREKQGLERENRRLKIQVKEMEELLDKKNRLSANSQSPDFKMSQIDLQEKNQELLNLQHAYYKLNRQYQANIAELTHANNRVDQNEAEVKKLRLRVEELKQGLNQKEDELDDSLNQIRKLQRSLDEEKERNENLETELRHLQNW
# B2: Zinc finger protein 64 (Homo sapiens), Q9NTW7 (parent)
# chain: MNASSEGESFAGSVQIPGGTTVLVELTPDIHICGICKQQFNNLDAFVAHKQSGCQLTGTSAAAPSTVQFVSEETVPATQTQTTTRTITSETQTITVSAPEFVFEHGYQTYLPTESNENQTATVISLPAKSRTKKPTTPPAQKRLNCCYPGCQFKTAYGMKDMERHLKIHTGDKPHKCEVCGKCFSRKDKLKTHMRCHTGVKPYKCKTCDYAAADSSSLNKHLRIHSDERPFKCQICPYASRNSSQLTVHLRSHTASELDDDVPKANCLSTESTDTPKAPVITLPSEAREQMATLGERTFNCCYPGCHFKTVHGMKDLDRHLRIHTGDKPHKCEFCDKCFSRKDNLTMHMRCHTSVKPHKCHLCDYAAVDSSSLKKHLRIHSDERPYKCQLCPYASRNSSQLTVHLRSHTGDTPFQCWLCSAKFKISSDLKRHMIVHSGEKPFKCEFCDVRCTMKANLKSHIRIKHTFKCLHCAFQGRDRADLLEHSRLHQADHPEKCPECSYSCSSAAALRVHSRVHCKDRPFKCDFCSFDTKRPSSLAKHVDKVHRDEAKTENRAPLGKEGLREGSSQHVAKIVTQRAFRCETCGASFVRDDSLRCHKKQHSDQSENKNSDLVTFPPESGASGQLSTLVSVGQLEAPLEPSQDL
# partner: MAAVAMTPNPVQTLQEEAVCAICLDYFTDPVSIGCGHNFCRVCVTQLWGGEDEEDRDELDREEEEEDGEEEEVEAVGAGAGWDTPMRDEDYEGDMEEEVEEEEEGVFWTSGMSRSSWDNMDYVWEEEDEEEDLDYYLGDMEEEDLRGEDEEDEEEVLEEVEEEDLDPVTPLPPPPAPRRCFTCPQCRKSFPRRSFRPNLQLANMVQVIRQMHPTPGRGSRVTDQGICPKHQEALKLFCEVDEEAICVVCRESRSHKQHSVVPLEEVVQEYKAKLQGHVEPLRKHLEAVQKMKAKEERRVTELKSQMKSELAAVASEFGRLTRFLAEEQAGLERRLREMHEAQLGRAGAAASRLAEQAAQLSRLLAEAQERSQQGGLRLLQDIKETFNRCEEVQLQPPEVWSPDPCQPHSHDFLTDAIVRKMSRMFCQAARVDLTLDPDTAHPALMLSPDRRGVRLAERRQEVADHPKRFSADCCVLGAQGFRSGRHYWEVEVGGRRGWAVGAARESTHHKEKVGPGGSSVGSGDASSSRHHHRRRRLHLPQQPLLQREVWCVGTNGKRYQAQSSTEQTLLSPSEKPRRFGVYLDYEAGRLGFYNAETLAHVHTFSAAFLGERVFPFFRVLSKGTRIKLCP
# B3: Protein VAC14 homolog (Homo sapiens), Q08AM6 (parent)
# chain: MNPEKDFAPLTPNIVRALNDKLYEKRKVAALEIEKLVREFVAQNNTVQIKHVIQTLSQEFALSQHPHSRKGGLIGLAACSIALGKDSGLYLKELIEPVLTCFNDADSRLRYYACEALYNIVKVARGAVLPHFNVLFDGLSKLAADPDPNVKSGSELLDRLLKDIVTESNKFDLVSFIPLLRERIYSNNQYARQFIISWILVLESVPDINLLDYLPEILDGLFQILGDNGKEIRKMCEVVLGEFLKEIKKNPSSVKFAEMANILVIHCQTTDDLIQLTAMCWMREFIQLAGRVMLPYSSGILTAVLPCLAYDDRKKSIKEVANVCNQSLMKLVTPEDDELDELRPGQRQAEPTPDDALPKQEGTASGGPDGSCDSSFSSGISVFTAASTERAPVTLHLDGIVQVLNCHLSDTAIGMMTRIAVLKWLYHLYIKTPRKMFRHTDSLFPILLQTLSDESDEVILKDLEVLAEIASSPAGQTDDPGPLDGPDLQASHSELQVPTPGRAGLLNTSGTKGLECSPSTPTMNSYFYKFMINLLKRFSSERKLLEVRGPFIIRQLCLLLNAENIFHSMADILLREEDLKFASTMVHALNTILLTSTELFQLRNQLKDLKTLESQNLFCCLYRSWCHNPVTTVSLCFLTQNYRHAYDLIQKFGDLEVTVDFLAEVDKLVQLIECPIFTYLRLQLLDVKNNPYLIKALYGLLMLLPQSSAFQLLSHRLQCVPNPELLQTEDSLKAAPKSQKADSPSIDYAELLQHFEKVQNKHLEVRHQRSGRGDHLDRRVVL
# partner: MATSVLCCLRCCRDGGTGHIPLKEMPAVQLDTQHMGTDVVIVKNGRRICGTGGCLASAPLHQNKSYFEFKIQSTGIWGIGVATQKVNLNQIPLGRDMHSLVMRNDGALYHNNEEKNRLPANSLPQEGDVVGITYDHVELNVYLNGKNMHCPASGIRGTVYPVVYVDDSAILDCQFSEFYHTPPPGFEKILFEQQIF
# B4: Retinoic acid receptor alpha (Homo sapiens), P10276 (parent)
# chain: MASNSSSCPTPGGGHLNGYPVPPYAFFFPPMLGGLSPPGALTTLQHQLPVSGYSTPSPATIETQSSSSEEIVPSPPSPPPLPRIYKPCFVCQDKSSGYHYGVSACEGCKGFFRRSIQKNMVYTCHRDKNCIINKVTRNRCQYCRLQKCFEVGMSKESVRNDRNKKKKEVPKPECSESYTLTPEVGELIEKVRKAHQETFPALCQLGKYTTNNSSEQRVSLDIDLWDKFSELSTKCIIKTVEFAKQLPGFTTLTIADQITLLKAACLDILILRICTRYTPEQDTMTFSDGLTLNRTQMHNAGFGPLTDLVFAFANQLLPLEMDDAETGLLSAICLICGDRQDLEQPDRVDMLQEPLLEALKVYVRKRRPSRPHMFPKMLMKITDLRSISAKGAERVITLKMEIPGSMPPLIQEMLENSEGLDTLSGQPGGGGRDGGGLAPPPGSCSPSLSPSSNRSSPATHSP
# partner: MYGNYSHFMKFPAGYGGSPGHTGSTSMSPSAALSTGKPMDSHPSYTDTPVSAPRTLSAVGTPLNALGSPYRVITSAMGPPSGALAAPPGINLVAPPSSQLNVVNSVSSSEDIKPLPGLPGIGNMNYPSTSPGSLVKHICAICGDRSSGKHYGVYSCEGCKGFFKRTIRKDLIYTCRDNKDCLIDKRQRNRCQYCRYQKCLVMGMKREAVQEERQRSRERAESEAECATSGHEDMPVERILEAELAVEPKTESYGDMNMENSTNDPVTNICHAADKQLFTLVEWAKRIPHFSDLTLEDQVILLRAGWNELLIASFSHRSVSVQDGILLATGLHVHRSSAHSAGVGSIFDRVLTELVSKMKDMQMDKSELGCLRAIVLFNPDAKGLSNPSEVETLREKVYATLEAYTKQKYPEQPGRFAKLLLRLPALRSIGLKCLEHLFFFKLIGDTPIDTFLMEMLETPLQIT
# B5: Enhancer of mRNA-decapping protein 3 (Homo sapiens), Q96F86 (parent)
# chain: MATDWLGSIVSINCGDSLGVYQGRVSAVDQVSQTISLTRPFHNGVKCLVPEVTFRAGDITELKILEIPGPGDNQHFGDLHQTELGPSGAGCQVGINQNGTGKFVKKPASSSSAPQNIPKRTDVKSQDVAVSPQQQQCSKSYVDRHMESLSQSKSFRRRHNSWSSSSRHPNQATPKKSGLKNGQMKNKDDECFGDDIEEIPDTDFDFEGNLALFDKAAVFEEIDTYERRSGTRSRGIPNERPTRYRHDENILESEPIVYRRIIVPHNVSKEFCTDSGLVVPSISYELHKKLLSVAEKHGLTLERRLEMTGVCASQMALTLLGGPNRLNPKNVHQRPTVALLCGPHVKGAQGISCGRHLANHDVQVILFLPNFVKMLESITNELSLFSKTQGQQVSSLKDLPTSPVDLVINCLDCPENVFLRDQPWYKAAVAWANQNRAPVLSIDPPVHEVEQGIDAKWSLALGLPLPLGEHAGRIYLCDIGIPQQVFQEVGINYHSPFGCKFVIPLHSA
# partner: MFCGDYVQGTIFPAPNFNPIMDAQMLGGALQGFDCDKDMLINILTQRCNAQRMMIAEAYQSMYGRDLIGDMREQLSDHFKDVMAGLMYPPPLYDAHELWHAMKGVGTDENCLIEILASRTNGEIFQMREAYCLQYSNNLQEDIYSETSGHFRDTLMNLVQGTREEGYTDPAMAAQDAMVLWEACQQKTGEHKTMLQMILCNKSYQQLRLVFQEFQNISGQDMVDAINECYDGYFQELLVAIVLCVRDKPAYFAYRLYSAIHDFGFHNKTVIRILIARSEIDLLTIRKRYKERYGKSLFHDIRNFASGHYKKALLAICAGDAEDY
# Variants of: B1
# Details: with CCDC102B
row,effect of a mutation on the interaction,Variant
1,with no effect,R346W

# Variants of: B2
# Details: with tri41_human TRIM41, Q8WV44
row,effect of a mutation on the interaction,Variant
1,with no effect,D227E

# Variants of: B3
# Details: with spry7_human SPRYD7, Q5W111
row,effect of a mutation on the interaction,Variant
1,with no effect,A127S

# Variants of: B4
# Details: with rxrg_human RXRG
row,effect of a mutation on the interaction,Variant
1,with no effect,R83H

# Variants of: B4
# Details: with rxrg_human RXRG
# Remark: another data set of the same source
row,effect of a mutation on the interaction,Variant
1,disrupting interaction strength,P375L

# Variants of: B5
# Details: with anx10_human ANXA10, Q9UJ72
row,effect of a mutation on the interaction,Variant
1,with no effect,F213L

# — IntAct's records for PubMed 29892012
